According to the supplement of paper PMC10065799, “High-throughput profiling of sequence recognition by tyrosine kinases and SH2 domains using bacterial peptide display” (eLife, 2023):

Each sequence was assayed against MERTK (UniProt Q12866) (assay: phosphorylation enrichment, bacterial display (enrichment ratio); higher = better substrate or ligand; peptides without Tyr show the background).
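Note: 11-residue human phosphosite peptides and single-mutation variants displayed on the E. coli surface, counted by deep sequencing, each peptide's frequency after selection divided by its frequency in the unselected input library; frequency after pTyr selection over input frequency; kinase dosed for 20-30% of maximal phosphorylation in three min.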

Chain of MERTK (Q12866 whole entry, looked up): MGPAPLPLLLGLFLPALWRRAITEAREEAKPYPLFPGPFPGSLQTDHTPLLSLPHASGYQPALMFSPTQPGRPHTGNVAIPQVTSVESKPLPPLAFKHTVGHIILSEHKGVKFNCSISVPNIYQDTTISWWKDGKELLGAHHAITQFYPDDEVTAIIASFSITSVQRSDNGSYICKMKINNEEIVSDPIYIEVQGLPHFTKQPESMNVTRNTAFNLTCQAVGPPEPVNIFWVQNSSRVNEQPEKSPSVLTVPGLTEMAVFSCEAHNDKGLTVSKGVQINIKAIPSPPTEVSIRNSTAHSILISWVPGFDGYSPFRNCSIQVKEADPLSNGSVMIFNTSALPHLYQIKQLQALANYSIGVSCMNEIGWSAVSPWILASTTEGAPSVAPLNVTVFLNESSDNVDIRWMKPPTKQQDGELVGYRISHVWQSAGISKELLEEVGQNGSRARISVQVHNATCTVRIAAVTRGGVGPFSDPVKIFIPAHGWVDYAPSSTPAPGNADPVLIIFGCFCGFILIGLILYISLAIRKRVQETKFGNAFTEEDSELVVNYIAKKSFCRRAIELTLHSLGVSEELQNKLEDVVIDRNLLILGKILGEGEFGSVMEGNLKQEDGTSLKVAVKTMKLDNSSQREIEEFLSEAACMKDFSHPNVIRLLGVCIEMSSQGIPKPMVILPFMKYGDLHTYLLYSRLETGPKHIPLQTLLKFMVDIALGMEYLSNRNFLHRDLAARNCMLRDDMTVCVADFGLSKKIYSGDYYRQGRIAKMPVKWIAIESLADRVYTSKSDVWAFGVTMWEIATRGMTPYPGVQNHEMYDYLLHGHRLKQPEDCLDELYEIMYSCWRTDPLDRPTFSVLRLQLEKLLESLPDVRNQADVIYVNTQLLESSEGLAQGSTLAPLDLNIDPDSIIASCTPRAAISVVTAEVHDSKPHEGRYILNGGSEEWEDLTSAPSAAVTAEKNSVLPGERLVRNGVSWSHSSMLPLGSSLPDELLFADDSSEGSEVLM

Sequence	phosphorylation enrichment
PRIHSYRGHLW [VHL_Y112_R107P]	0.655
RELSWYRGQRP [HESX1_Y106_R109Q]	0.488
STFVPCEIKVQ [L1CAM_Y784_Y784C]	0.386
NPQKSYFILLF [WAS_Y83_R86L_YF]	0.398
PADSGYPAYLG [ATP6V1A_Y374]	0.417
SFPSTYRFERG [INPPL1_Y661_P659S_YF]	0.392
YGMQLYQKYMH [GRB14_Y347_N349K]	1.92
RAIGYYSATSK [FAM120A_Y328]	1.17
IMAFFYMCDRA [CASD1_Y382_YF]	0.544
EEEPVYKAEPE [HCLS1_Y360_E361K]	0.518
EEAAGYAQESQ [CAMKV_Y491]	0.325
RPFFLYVAFHN [SGSH_Y174_D179N]	0.453
RFLKDYGEFEV [GINS1_Y156_C152Y_YF]	0.778
FGAHNHHPLPV [OAT_Y55_Y55H_YF]	0.496
ERSMSYSDESR [SMG1_Y143]	0.489
DLEKTYNTFRS [B4GALNT2_Y538_A533D_YF]	0.291
ARAHKYHGGGG [HBB_Y146_L142R]	0.276

Sequence	phosphorylation enrichment
LTKQEYDEAGP [ACTA1_Y364_I359L]	0.817
YDGKEYDPVEA [MAPRE2_Y167]	0.497
KDPPDYKYQPR [SOX9_Y172_H169P]	0.375
NVLPEYKLQAP [KCNH2_Y388_D383N]	0.43
VRTGIYHGGEP [PIK3CA_Y361]	0.431
PLGVLYKVKVY [PTS_Y128_V124L]	0.318
HKANEYYPVVI [ADAMTS18_Y764_L769I]	0.558
RAQIRYAQEHD [NSD1_Y1987_R1984Q]	0.912
RSSKMYPKTRS [LPL_Y329_L330P]	0.562
IEELTYIIKQD [STX5_Y137]	0.469
GRVFVYRLSEQ [ITGAE_Y551_YF]	0.404
IYHLSYLHNCE [PDE6B_Y227]	3.92
CDGKEYDPVEA [MAPRE2_Y167_Y162C]	0.541
PGAPAYRVLME [MYO5A_Y1245]	0.566
AVARPYHIQKW [ACSBG1_Y677_A673V]	0.362
QRIHNYFEHRF [HCN4_Y554_D553N_YF]	0.567

What follows are sequences tested against EPHB2 (UniProt P29323) in the same assay as above.
Chain of EPHB2 (P29323 whole entry, looked up): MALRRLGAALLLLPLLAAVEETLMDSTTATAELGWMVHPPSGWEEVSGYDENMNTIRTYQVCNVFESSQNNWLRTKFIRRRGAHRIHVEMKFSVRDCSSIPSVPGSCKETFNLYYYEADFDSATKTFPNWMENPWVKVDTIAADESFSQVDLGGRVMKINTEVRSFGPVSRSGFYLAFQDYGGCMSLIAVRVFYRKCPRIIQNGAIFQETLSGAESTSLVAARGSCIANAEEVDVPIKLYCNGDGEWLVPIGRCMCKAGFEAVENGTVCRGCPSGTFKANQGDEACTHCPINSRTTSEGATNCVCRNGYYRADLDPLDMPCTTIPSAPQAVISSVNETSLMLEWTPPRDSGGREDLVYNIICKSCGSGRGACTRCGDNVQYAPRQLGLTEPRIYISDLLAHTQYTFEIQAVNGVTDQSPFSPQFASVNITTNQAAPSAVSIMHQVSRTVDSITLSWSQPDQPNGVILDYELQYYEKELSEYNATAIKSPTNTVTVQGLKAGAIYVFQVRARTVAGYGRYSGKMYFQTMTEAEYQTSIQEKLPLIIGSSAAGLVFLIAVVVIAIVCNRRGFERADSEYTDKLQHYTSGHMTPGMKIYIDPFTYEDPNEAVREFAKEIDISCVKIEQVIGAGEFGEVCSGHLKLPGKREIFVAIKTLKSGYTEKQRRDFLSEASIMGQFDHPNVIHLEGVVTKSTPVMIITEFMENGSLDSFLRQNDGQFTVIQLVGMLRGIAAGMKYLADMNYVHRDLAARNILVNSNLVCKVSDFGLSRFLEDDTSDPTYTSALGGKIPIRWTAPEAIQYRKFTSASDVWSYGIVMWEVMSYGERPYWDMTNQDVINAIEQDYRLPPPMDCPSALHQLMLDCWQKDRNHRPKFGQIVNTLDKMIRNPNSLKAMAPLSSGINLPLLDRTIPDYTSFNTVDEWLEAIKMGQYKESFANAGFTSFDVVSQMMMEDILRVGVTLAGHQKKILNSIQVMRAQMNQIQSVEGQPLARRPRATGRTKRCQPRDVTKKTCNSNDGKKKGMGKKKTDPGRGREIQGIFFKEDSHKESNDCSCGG

Sequence	phosphorylation enrichment
PRIHSYRGHLW [VHL_Y112_R107P]	0.451
RELSWYRGQRP [HESX1_Y106_R109Q]	0.661
STFVPCEIKVQ [L1CAM_Y784_Y784C]	0.727
NPQKSYFILLF [WAS_Y83_R86L_YF]	0.551
PADSGYPAYLG [ATP6V1A_Y374]	0.468
SFPSTYRFERG [INPPL1_Y661_P659S_YF]	0.394
YGMQLYQKYMH [GRB14_Y347_N349K]	2.42
RAIGYYSATSK [FAM120A_Y328]	0.515
IMAFFYMCDRA [CASD1_Y382_YF]	0.648
EEEPVYKAEPE [HCLS1_Y360_E361K]	0.525
EEAAGYAQESQ [CAMKV_Y491]	0.543
RPFFLYVAFHN [SGSH_Y174_D179N]	0.491
RFLKDYGEFEV [GINS1_Y156_C152Y_YF]	0.569
FGAHNHHPLPV [OAT_Y55_Y55H_YF]	0.54
ERSMSYSDESR [SMG1_Y143]	0.541
DLEKTYNTFRS [B4GALNT2_Y538_A533D_YF]	0.319
ARAHKYHGGGG [HBB_Y146_L142R]	0.273

Sequence	phosphorylation enrichment
LTKQEYDEAGP [ACTA1_Y364_I359L]	1.23
YDGKEYDPVEA [MAPRE2_Y167]	0.637
KDPPDYKYQPR [SOX9_Y172_H169P]	0.518
NVLPEYKLQAP [KCNH2_Y388_D383N]	0.632
VRTGIYHGGEP [PIK3CA_Y361]	0.421
PLGVLYKVKVY [PTS_Y128_V124L]	0.626
HKANEYYPVVI [ADAMTS18_Y764_L769I]	0.599
RAQIRYAQEHD [NSD1_Y1987_R1984Q]	0.575
RSSKMYPKTRS [LPL_Y329_L330P]	0.151
IEELTYIIKQD [STX5_Y137]	0.578
GRVFVYRLSEQ [ITGAE_Y551_YF]	0.511
IYHLSYLHNCE [PDE6B_Y227]	0.764
CDGKEYDPVEA [MAPRE2_Y167_Y162C]	0.66
PGAPAYRVLME [MYO5A_Y1245]	0.585
AVARPYHIQKW [ACSBG1_Y677_A673V]	0.358
QRIHNYFEHRF [HCN4_Y554_D553N_YF]	0.443
